± gives the uncertainty stated by the source.

This series is described as follows: amyloid nucleation score (Sup35N fusion, yeast selection) (log enrichment); library NNK2; higher = more nucleation; inactive = no reads after selection. The method, boiled down:
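Random libraries were run with three technical output replicates. In each, psi-negative yeast expressing Sup35N fused to peptides of 20 random codons were induced 24 hours with 100 μM copper sulfate and grown 7 days at 30°C on medium lacking adenine and uracil, and input and output plasmid inserts were Illumina-sequenced. The nucleation score is the DiMSum log enrichment of output over input reads, centred on the mode score of non-aggregating sequences, and sequences under 100 input reads were excluded.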
In the case of QRARTRYGLRSLSYSAYIWS, the amyloid nucleation score is 0.807 ± 0.17.

Regarding QRFRHRKTQISVFS, the amyloid nucleation score was -0.876 ± 1.1.

Consider QSFFLN, for which the amyloid nucleation score entry was “inactive”.

The substance QSIRFVFLPYELGTYHGDEG returned an amyloid nucleation score of -0.241 ± 0.24.

As for QSPSIRTCTYYGTYRRLKKG, the amyloid nucleation score entry was “inactive”.

Consider QSYRVPKLFMNAAE, for which the amyloid nucleation score amounted to 0.197 ± 0.57.

As for QTDMII, the amyloid nucleation score result is “inactive”.

The substance QTRTQEFFRSFNKVFTQ returned an amyloid nucleation score of 2.59 ± 0.061.

QTSYMDYKYRMGFLS had an amyloid nucleation score of -0.69 ± 0.63.

QTYIFFICLVVGMYIVCGKH returned an amyloid nucleation score of -0.17 ± 0.45.

Take QTYMPTFCYITFLECWSDKG: the amyloid nucleation score turned out to be 7.685 ± 0.035.

Take QVAIPHHTRIETASARRVHT: the amyloid nucleation score was found to be 1.09 ± 0.51.

For QVGRSSQCEDTVVFIRVRLW, the amyloid nucleation score turned out to be 3.77 ± 0.066.

QVYCQAVNYKENRVYFMGVP returned an amyloid nucleation score of 5.2 ± 0.054.

For QVYLS, the amyloid nucleation score was -1.17 ± 0.62.

As to QWQGQHLT, the amyloid nucleation score is -1.4 ± 1.

In the case of QWSVINRTS, the amyloid nucleation score came to 1.54 ± 0.31.

In turn, QWVDQVYIAETIVPLSNKVV yielded an amyloid nucleation score of -0.398 ± 1.

As for QYGCMEYRHNKCNQREVCRY, the amyloid nucleation score turned out to be 0.281 ± 0.5.

As to QYMLLMMC, the amyloid nucleation score was determined as 0.671 ± 0.6.

Turning to QYMYLYIKRMMYSSTKKF, the amyloid nucleation score result is “inactive”.

For the substance RAANYCGLKQAWSGFKRCVA, the amyloid nucleation score was 0.496 ± 0.36.

As for RADSIFDTI, the amyloid nucleation score was -0.721 ± 0.61.

RADTRDSGVVEACKGWSHEE returned an amyloid nucleation score of 0.451 ± 0.34.

RAMVPHHNADGCGLLQDTQ: the amyloid nucleation score came to 1.14 ± 0.38.

As to RAMYECF, the amyloid nucleation score was 0.604 ± 0.41.

As to RARLKTMRPGSCSRARGWCG, the amyloid nucleation score was determined as 0.883 ± 0.33.

Consider RASARLVCTFYVLTERG, for which the amyloid nucleation score stood at 4.17 ± 0.064.

Substance RAVEMVYCKLRMSQDGHLRW had an amyloid nucleation score of 5.482 ± 0.048.

RAWCYTGMRGDMESW returned an amyloid nucleation score of -0.447 ± 0.41.

The substance RCAMRVSARMSRSTGISRLR yielded an amyloid nucleation score of 1.64 ± 0.15.

With RCKAAGCIHLVFFVCRDACC, the amyloid nucleation score was 0.605 ± 0.66.

Regarding RCNQLIWTASDNWYYMWTTV, the amyloid nucleation score stood at 1.8 ± 0.1.

With RCNWTSNFFQYMYKNRPNNG, the amyloid nucleation score entry was “inactive”.

With RCREWYMR, the amyloid nucleation score was -0.568 ± 0.63.

RCSVVNWDNHVMLALDRVGY: the amyloid nucleation score entry was “inactive”.

In the case of RDAGSGREL, the amyloid nucleation score result was “inactive”.

The substance RDCICSVYPFAVLMGSQPLA yielded an amyloid nucleation score of 9.086 ± 0.063.

RDCIRAVSCVIENTGPSAYE yielded an amyloid nucleation score of 0.049 ± 0.56.

Take RDGYRSGYAESMVGVWFRLK: the amyloid nucleation score was determined as 0.662 ± 0.81.

On to RDIFILYD, for which the amyloid nucleation score result is “inactive”.

RDLEPYLHIWSLIVSARV returned an amyloid nucleation score of -0.014 ± 0.65.

In the case of RDLLIGDDI, the amyloid nucleation score is -0.983 ± 0.44.

For RDLSTGSPILEFHRCTRISG, the amyloid nucleation score was -0.172 ± 0.76.

Turning to RDSFQCSY, the amyloid nucleation score was -0.939 ± 0.54.

In turn, RDWQYRIYVQCNR came in with an amyloid nucleation score of 2.17 ± 0.14.

Regarding REAARRLGEKPNIAVGFDAG, the amyloid nucleation score worked out at 0.559 ± 0.44.

Turning to REGPCGELGELPVLKRRGKH, the amyloid nucleation score turned out to be 0.986 ± 0.41.

In the case of RFDWRFCVVNRPGGKWLVVR, the amyloid nucleation score was 0.824 ± 0.29.

With RFFCLWFSWKNLGFNVKRAV, the amyloid nucleation score amounted to 5.02 ± 0.082.

In turn, RFGGSVYARGERL yielded an amyloid nucleation score of -0.159 ± 0.46.

On to RFGIGSLRSTSHVAGLMVMS, for which the amyloid nucleation score amounted to 0.733 ± 0.44.

In turn, RFILLFTCGKGFFMHTCSRG yielded an amyloid nucleation score of 3.86 ± 0.11.

RFIMSRYALEGAESTLMKHN displayed an amyloid nucleation score of 3.53 ± 0.1.

Turning to RFKWK, the amyloid nucleation score was found to be 3.67 ± 0.11.

Turning to RFQLVSAMAFTYMVAR, the amyloid nucleation score is -0.211 ± 0.56.

RFRRSVFMLMHGWRSTVFIV: the amyloid nucleation score was 1.07 ± 0.34.

For RFSCLSELSFLYFGSH, the amyloid nucleation score was determined as 5.059 ± 0.034.

The substance RFSELSHK had an amyloid nucleation score of -0.144 ± 0.26.

RFVKTGYTYDLVGTVLHCLS returned an amyloid nucleation score of 5.97 ± 0.054.

RFYGVY: the amyloid nucleation score entry is “inactive”.

RFYIPLSYFMSEGDRSCKFI showed an amyloid nucleation score of -0.642 ± 0.61.

Take RGALALLVRDAMFFCSLSGF: the amyloid nucleation score came out at 4.41 ± 0.1.

For RGANNGMCYFMTRRKWLLMV, the amyloid nucleation score was 0.813 ± 0.56.

For RGFCYNIT, the amyloid nucleation score is 0.305 ± 0.37.

For the substance RGGSIIYHALVRVVFFLSVY, the amyloid nucleation score is -1.01 ± 0.64.

With RGIKNVWNL, the amyloid nucleation score came out at 0.461 ± 0.54.

RGLTKLSVLFRQNKESYNIV displayed an amyloid nucleation score of -0.521 ± 0.76.

RGMTRVVFTVMLLRLWYSQS yielded an amyloid nucleation score of 0.659 ± 0.21.

RGMWRCHNG displayed an amyloid nucleation score of 1.49 ± 0.37.

For the substance RGNHNHGLWNPKNSMVMWEG, the amyloid nucleation score came to 0.062 ± 0.48.

Substance RGQTMNHALRAHW registered an amyloid nucleation score of 0.639 ± 0.42.

As for RGSVVLNSVWVMLDMYCLLP, the amyloid nucleation score came out at 1.82 ± 0.28.

RGVCLNNLMWGTLGTRKALL: the amyloid nucleation score is -0.797 ± 1.

As to RGVDYVLSCL, the amyloid nucleation score was -1.21 ± 0.61.

In turn, RGVLYAKVL returned an amyloid nucleation score of 0.808 ± 0.33.

Turning to RGVVGLDSIRWPSFGAVMKF, the amyloid nucleation score was -0.757 ± 0.48.

For RHDSCMCFMTDQL, the amyloid nucleation score is -0.864 ± 0.44.

Substance RHKFAMMACVTYNGDVGVMT displayed an amyloid nucleation score of 1.14 ± 0.21.

RHNKNRSVCSYRSKYAKKYV had an amyloid nucleation score of -0.208 ± 0.74.

In the case of RHRCSI, the amyloid nucleation score was -0.059 ± 0.39.

With RIEDFF, the amyloid nucleation score was determined as 1.19 ± 0.68.

As to RIGDRSCSVRKEHKDAQWSI, the amyloid nucleation score is 0.196 ± 0.77.

The substance RIGLMNL had an amyloid nucleation score of 3.38 ± 0.11.

For RIHFGFRMMMCRDIRIFTSQ, the amyloid nucleation score was found to be 6.06 ± 0.064.

On to RIIKYIMNGRRFVVLWRVFS, for which the amyloid nucleation score turned out to be 5.342 ± 0.052.

For the substance RIMPTLLKIPYLWYQSLSCD, the amyloid nucleation score was -0.081 ± 0.22.

Turning to RINVPDVRMDPNYQIHF, the amyloid nucleation score was -1.02 ± 0.36.

Turning to RIQWKDGYHVARRVFIGNTG, the amyloid nucleation score was -0.449 ± 0.63.

Consider RIRCIVGSVPCMAASKHDGR, for which the amyloid nucleation score was determined as 0.783 ± 0.22.

Regarding RIRYGLKVCSMVDGMLGRDW, the amyloid nucleation score worked out at 0.807 ± 0.29.

RKIYV returned an amyloid nucleation score of -0.139 ± 0.55.

RKQCNKFGVWDQI showed an amyloid nucleation score of 0.214 ± 0.5.

For the substance RLCLRDQYSFGQIVDYKCFD, the amyloid nucleation score result was “inactive”.

For the substance RLDNIIVAERCTSLRESRFG, the amyloid nucleation score is -0.047 ± 1.1.

Consider RLDRVIFY, for which the amyloid nucleation score came out at 1.85 ± 0.099.

RLFCSAVAH had an amyloid nucleation score of 0.308 ± 0.44.

In turn, RLFDRSVLPLGLWVRCKIHW yielded an amyloid nucleation score of 0.28 ± 0.61.

For RLIGLVSRVEHVYIAVKRWE, the amyloid nucleation score worked out at 0.543 ± 0.34.

Substance RLLMGPVNSFGR gave an amyloid nucleation score of 3.57 ± 0.07.

As to RLLRQGDFGVTENRFLFRDI, the amyloid nucleation score is -0.502 ± 0.79.

As to RLNAMEESIKSNIYSFWSFY, the amyloid nucleation score result was “inactive”.

Regarding RLNRSMSSHHDRRHLEWSLS, the amyloid nucleation score stood at 0.235 ± 0.19.

For RLNVISIQNAIMRVVRTKRF, the amyloid nucleation score was found to be 3.61 ± 0.12.

Source of the values: the supplement of paper PMC12042874.
